In test [1] the target is HLA-B*08:01. The test can be described thus: IEDB peptide-MHC binding, purified MHC/direct/fluorescence; filed as Kd, often an IC50 or EC50 that approximates it; ≥ and ≤ were set here for values at or beyond the usual limits of such assays. Conditions: source organism: Vibrio cholerae V52.
The target in another test is HLA-C*07:02. The description is as above.
The next test addresses HLA-A*01:01. The test is described as above. Conditions: source organism: Cowpox virus.
Test [2] has as its target HLA-A*03:01. The description is as above. Conditions: source organism: Cowpox virus.
In the next test the target is HLA-A*11:01. Described as above. Conditions: source organism: Cowpox virus.
A further test has as its target HLA-A*31:01. The test is described as above. Conditions: source organism: Cowpox virus.
Another test deals with HLA-B*07:02. The description is as above. Conditions: source organism: Cowpox virus.
The target in test [3] is HLA-B*15:01. The description is as above. Conditions: source organism: Cowpox virus.
Another test concerns the target HLA-B*15:17. The description is as above. Conditions: source organism: Cowpox virus.
Test [4] concerns the target HLA-B*18:01. Described as above. Conditions: source organism: Cowpox virus.
The next test has as its target HLA-B*27:05. Described as above. Conditions: source organism: Cowpox virus.
The next test concerns the target HLA-B*40:01. The description is as above. Conditions: source organism: Cowpox virus.
Test [5] deals with HLA-B*46:01. Described as above. Conditions: source organism: Cowpox virus.
A further test addresses HLA-B*48:01. The description is as above. Conditions: source organism: Cowpox virus.
For test [6], the target named is HLA-B*51:01. The description is as above. Conditions: source organism: Cowpox virus.
The target in test [7] is HLA-B*57:01. The test is described as above. Conditions: source organism: Cowpox virus.
The target in the next test is HLA-B*58:01. Described as above. Conditions: source organism: Cowpox virus.
Another test deals with HLA-A*02:01. Description: IEDB peptide-MHC binding, purified MHC/competitive/fluorescence; filed as Kd, often an IC50 or EC50 that approximates it; ≥ and ≤ were set here for values at or beyond the usual limits of such assays.
In the next test the target is HLA-A*02:03. Described as above.
The next test concerns the target HLA-A*02:06. Described as above. Conditions: source organism: Vaccinia virus Copenhagen.
For a further test, the target named is HLA-A*26:01. The test is described as above.
The next test deals with HLA-A*69:01. Described as above. Conditions: source organism: Vaccinia virus Copenhagen.
The target in test [8] is HLA-B*08:01. The description is as above.
Another test concerns the target HLA-B*15:42. Described as above. Conditions: source organism: Vaccinia virus Copenhagen.
A further test addresses HLA-B*39:01. Described as above.
For the next test, the target named is HLA-B*45:06. Described as above. Conditions: source organism: Vaccinia virus Copenhagen.
The next test deals with HLA-B*83:01. Described as above. Conditions: source organism: Vaccinia virus Copenhagen.
Another test addresses HLA-C*03:03. Description: IEDB peptide-MHC binding, purified MHC/direct/fluorescence; filed as Kd, often an IC50 or EC50 that approximates it; ≥ and ≤ were set here for values at or beyond the usual limits of such assays. Conditions: source organism: Yersinia pestis Nepal516.
In another test the target is HLA-C*05:01. The description is as above. Conditions: source organism: Yersinia pestis Nepal516.
A further test concerns the target HLA-C*12:03. The test is described as above. Conditions: source organism: Yersinia pestis Nepal516.
The target in test [9] is HLA-B*15:01. Description: IEDB peptide-MHC binding, purified MHC/competitive/fluorescence; filed as Kd, often an IC50 or EC50 that approximates it; ≥ and ≤ were set here for values at or beyond the usual limits of such assays.
The next test concerns the target HLA-B*35:01. The description is as above. Conditions: source organism: Yersinia pestis Nepal516.
The target of test [10] is HLA-B*51:01. The description is as above.
The target in a further test is HLA-A*02:12. Described as above. Conditions: source organism: Vibrio parahaemolyticus RIMD 2210633.
Another test deals with HLA-A*02:19. The description is as above. Conditions: source organism: Vibrio parahaemolyticus RIMD 2210633.
The target in test [11] is HLA-A*03:01. Described as above. Conditions: source organism: Vibrio parahaemolyticus RIMD 2210633.
The target in the next test is HLA-A*29:02. Described as above. Conditions: source organism: Vibrio parahaemolyticus RIMD 2210633.
For a further test, the target named is HLA-A*68:02. Described as above. Conditions: source organism: Vibrio parahaemolyticus RIMD 2210633.
For test [12], the target named is HLA-B*18:01. Described as above. Conditions: source organism: Vibrio parahaemolyticus RIMD 2210633.
In a further test the target is HLA-B*27:03. The description is as above. Conditions: source organism: Vibrio parahaemolyticus RIMD 2210633.
Test [13] has as its target HLA-B*46:01. The test is described as above. Conditions: source organism: Vibrio parahaemolyticus RIMD 2210633.
Test [14] addresses HLA-B*57:01. Described as above. Conditions: source organism: Vibrio parahaemolyticus RIMD 2210633.
Where [15] appears, read: source organism: Vaccinia virus Copenhagen.
Where [16] appears, read: source organism: Yersinia pestis Nepal516.
[17] abbreviates: source organism: Vibrio parahaemolyticus RIMD 2210633.
Where [18] appears, read: source organism: Salmonella enterica subsp. enterica serovar Typhi.

Turning to FIRWRFYLL, the Kd in the test with HLA-B*08:01 [1] turned out to be 0.216 µM; in the test with HLA-C*07:02 (source organism: Vibrio cholerae 2740-80), 4.08 µM.
For YPPPRYITV, the Kd is not below 20 µM with HLA-A*01:01; not below 20 µM in the test with HLA-A*03:01 [2]; not below 20 µM with HLA-A*11:01; not below 20 µM with HLA-A*31:01; 0.113 µM with HLA-B*07:02; not below 20 µM in the test with HLA-B*15:01 [3]. Besides, the Kd in the test with HLA-B*15:17, with HLA-B*18:01 [4], in the test with HLA-B*27:05, with HLA-B*40:01, with HLA-B*46:01 [5] and in the test with HLA-B*48:01 was not below 20 µM in each case. Also, the Kd with HLA-B*51:01 [6] is 0.179 µM; in the test with HLA-B*57:01 [7] it was not below 20 µM; with HLA-B*58:01, not below 20 µM; in the test with HLA-A*02:01 (setting [15]), 0.106 µM; with HLA-A*02:03 (setting [15]), 0.239 µM; with HLA-A*02:06, 0.0114 µM. Also, the Kd with HLA-A*26:01 (setting [15]) is not below 20 µM; in the test with HLA-A*69:01, 0.0681 µM; in the test with HLA-B*08:01 [8] (setting [15]), 0.543 µM; with HLA-B*15:42, not below 5 µM; in the test with HLA-B*39:01 (setting [15]), 3.58 µM; with HLA-B*45:06, not below 5 µM. This sequence also gave a Kd in the test with HLA-B*83:01 not below 5 µM.
Consider FAFKLSFAI, for which the Kd is 0.004 µM with HLA-C*03:03; not below 20 µM with HLA-C*05:01; not below 20 µM with HLA-C*07:02 (setting [16]); not above 0.001 µM with HLA-C*12:03; 1.01 µM with HLA-A*02:01 (setting [16]); not below 20 µM with HLA-B*15:01 [9] (setting [16]). Besides, the values for the Kd in the test with HLA-B*35:01, with HLA-B*39:01 (setting [16]) and in the test with HLA-B*51:01 [10] (setting [16]) were 0.065 µM, 3 µM and not below 20 µM, respectively.
Consider HVIYFTAFT, for which the Kd in the test with HLA-A*02:01 (setting [17]), in the test with HLA-A*02:03 (setting [17]), with HLA-A*02:12, with HLA-A*02:19, with HLA-A*03:01 [11] and in the test with HLA-A*26:01 (setting [17]) was not below 20 µM each time. Moreover, the Kd is not below 20 µM in the test with HLA-A*29:02; 0.0577 µM with HLA-A*68:02; not below 20 µM with HLA-B*15:01 [9] (setting [17]); not below 20 µM in the test with HLA-B*18:01 [12]; not below 20 µM in the test with HLA-B*27:03; not below 20 µM in the test with HLA-B*39:01 (setting [17]). In addition, the dissociation constant (Kd) with HLA-B*46:01 [13], with HLA-B*51:01 [10] (setting [17]) and with HLA-B*57:01 [14] was not below 20 µM in each case.
Regarding MMLSPLVAL, the Kd with HLA-C*07:02 (source organism: Salmonella enterica subsp. enterica serovar Typhi str. CT18) is 0.858 µM; with HLA-A*02:01 (setting [18]), 0.0002 µM; with HLA-B*08:01 [8] (setting [18]), 0.96 µM; with HLA-B*39:01 (setting [18]), 0.0008 µM.

Broadly, the Kd is the equilibrium constant for the complex coming apart.

The values above are taken from the Immune Epitope Database (IEDB).
